Assays:
[1] = Storage stability of lyophilized HV1C3 at 60° C., tartaric acid concentration (Experiment Example 4); format: physicochemical
Experimental: Hirudin variant HV1C3 and purified saccharose were dissolved in purified water to a final concentration of 6 mg/ml (0.866 mM) and 1.6 mg/ml (4.7 mM), respectively. The resulting solution was divided into four equal portions. Three of these portions were adjusted to pH 5.5 using 5 mM of tartaric acid, 10 mM of tartaric acid, and 30 mM of tartaric acid, respectively. Mannitol was added to a solution without pH adjustment to a concentration of 10 mg/ml (55 mM). These solutions were filtered through a 0.22 μm membrane filter. The filtrates were filled into 6 ml vials in the amount of 1 ml for each vial. 50 such vials were prepared for each pH of the solution, 200 vials in total. All these 200 vials were lyophilized.
The lyophilized samples were stored in an incubator at 60° C. and removed from the incubator after 1, 2, 3, 4, 5, and 6 weeks, respectively. 1 ml of purified water was added to each vial removed. The amount (percentage) of the hirudin variant HV1C3 remaining in the lyophilized sample was determined in the same manner as in Experiment Example 1.

[2] = Storage stability of lyophilized HV1C3 at 60° C., pH adjusting agents (Experiment Example 2); format: physicochemical; conditions: saccharose, mannitol
Experimental: Hirudin variant HV1C3, purified saccharose, and mannitol were dissolved in purified water to a final concentration of 6 mg/ml (0.86 mM), 1.6 mg/ml (4.7 mM), and 10 mg/ml (55 mM), respectively. The resulting solution was divided into five equal portions. Four of these portions were adjusted to pH 5.5 with the addition of 30 mM of acetic acid, tartaric acid, citric acid, or phosphoric acid. The peptide solutions for which the pH was thus adjusted and the peptide solution without pH adjustment were filtered through a 0.22 μm membrane filter. The filtrates were filled into 6 ml vials in the amount of 1 ml for each vial. 50 such vials were prepared for each pH of the solution, 250 vials in total. All these 250 vials were lyophilized.
The lyophilized samples were stored in an incubator at 60° C. and removed from the incubator after 1, 2, 3, 4, 5, 6, 7, and 8 weeks, respectively. 1 ml of purified water was added to each vial removed. Solutions further diluted 50-fold were used to measure the amount (percentage) of the hirudin variant HV1C3 remaining in the lyophilized sample in the same manner as in Experiment Example 1.

[3] = tartaric acid 0 mM, without pH adjustment, mannitol 10 mg/ml, saccharose
[4] = tartaric acid 5 mM, pH 5.5, saccharose
[5] = tartaric acid 10 mM, pH 5.5, saccharose
[6] = tartaric acid 30 mM, pH 5.5, saccharose

B1: hirudin variant HV1C3: Hirudin variant having the amino acid sequence shown by Sequence No. 1 (JP Laid-open No. 173798/1992) (protein)
chain: VVYTDCTESGQNLCLCEGSNVCGQGNKCILGSDGEKNQCVTGEGTPKPQSHNQGDFEPIPEDAYDE
Remaining peptide (%) 1 wk [1, 3]: 97.0%
Remaining peptide (%) 2 wks [1, 3]: 94.0%
Remaining peptide (%) 3 wks [1, 3]: 92.0%
Remaining peptide (%) 4 wks [1, 3]: 91.0%
Remaining peptide (%) 5 wks [1, 3]: 87.8%
Remaining peptide (%) 6 wks [1, 3]: 86.5%
Remaining peptide (%) 1 wk [1, 4]: 98.8%
Remaining peptide (%) 2 wks [1, 4]: 98.6%
Remaining peptide (%) 3 wks [1, 4]: 97.6%
Remaining peptide (%) 4 wks [1, 4]: 97.5%
Remaining peptide (%) 5 wks [1, 4]: 97.0%
Remaining peptide (%) 6 wks [1, 4]: 96.9%
Remaining peptide (%) 1 wk [1, 5]: 98.5%
Remaining peptide (%) 2 wks [1, 5]: 98.1%
Remaining peptide (%) 3 wks [1, 5]: 97.2%
Remaining peptide (%) 4 wks [1, 5]: 96.9%
Remaining peptide (%) 5 wks [1, 5]: 96.4%
Remaining peptide (%) 6 wks [1, 5]: 96.1%
Remaining peptide (%) 1 wk [1, 6]: 97.9%
Remaining peptide (%) 2 wks [1, 6]: 96.8%
Remaining peptide (%) 3 wks [1, 6]: 96.1%
Remaining peptide (%) 4 wks [1, 6]: 94.7%
Remaining peptide (%) 5 wks [1, 6]: 94.1%
Remaining peptide (%) 6 wks [1, 6]: 93.5%
Remaining peptide (%) 1 wk ([2]; pH 5.5, acetic acid 30 mM): 98.3%
Remaining peptide (%) 2 wks ([2]; pH 5.5, acetic acid 30 mM): 95.6%
Remaining peptide (%) 3 wks ([2]; pH 5.5, acetic acid 30 mM): 94.2%
Remaining peptide (%) 4 wks ([2]; pH 5.5, acetic acid 30 mM): 93.3%
Remaining peptide (%) 5 wks ([2]; pH 5.5, acetic acid 30 mM): 92.0%
Remaining peptide (%) 6 wks ([2]; pH 5.5, acetic acid 30 mM): 91.9%
Remaining peptide (%) 7 wks ([2]; pH 5.5, acetic acid 30 mM): 91.4%
Remaining peptide (%) 8 wks ([2]; pH 5.5, acetic acid 30 mM): 90.6%
Remaining peptide (%) 1 wk ([2]; pH 5.5, citric acid 30 mM): 97.4%
Remaining peptide (%) 2 wks ([2]; pH 5.5, citric acid 30 mM): 95.8%
Remaining peptide (%) 3 wks ([2]; pH 5.5, citric acid 30 mM): 94.4%
Remaining peptide (%) 4 wks ([2]; pH 5.5, citric acid 30 mM): 93.3%
Remaining peptide (%) 5 wks ([2]; pH 5.5, citric acid 30 mM): 92.4%
Remaining peptide (%) 6 wks ([2]; pH 5.5, citric acid 30 mM): 91.6%
Remaining peptide (%) 7 wks ([2]; pH 5.5, citric acid 30 mM): 90.8%
Remaining peptide (%) 8 wks ([2]; pH 5.5, citric acid 30 mM): 89.8%
Remaining peptide (%) 1 wk ([2]; pH 5.5, phosphoric acid 30 mM): 77.9%
Remaining peptide (%) 2 wks ([2]; pH 5.5, phosphoric acid 30 mM): 66.6%
Remaining peptide (%) 3 wks ([2]; pH 5.5, phosphoric acid 30 mM): 61.4%
Remaining peptide (%) 4 wks ([2]; pH 5.5, phosphoric acid 30 mM): 58.1%
Remaining peptide (%) 5 wks ([2]; pH 5.5, phosphoric acid 30 mM): 57.3%
Remaining peptide (%) 6 wks ([2]; pH 5.5, phosphoric acid 30 mM): 57.6%
Remaining peptide (%) 1 wk ([2]; pH 5.5, tartaric acid 30 mM): 98.4%
Remaining peptide (%) 2 wks ([2]; pH 5.5, tartaric acid 30 mM): 97.6%
Remaining peptide (%) 3 wks ([2]; pH 5.5, tartaric acid 30 mM): 95.9%
Remaining peptide (%) 4 wks ([2]; pH 5.5, tartaric acid 30 mM): 95.2%
Remaining peptide (%) 5 wks ([2]; pH 5.5, tartaric acid 30 mM): 92.4%
Remaining peptide (%) 6 wks ([2]; pH 5.5, tartaric acid 30 mM): 92.2%
Remaining peptide (%) 7 wks ([2]; pH 5.5, tartaric acid 30 mM): 91.9%
Remaining peptide (%) 8 wks ([2]; pH 5.5, tartaric acid 30 mM): 90.6%
Remaining peptide (%) 1 wk ([2]; without pH adjustment): 96.9%
Remaining peptide (%) 2 wks ([2]; without pH adjustment): 94.2%
Remaining peptide (%) 3 wks ([2]; without pH adjustment): 92.3%
Remaining peptide (%) 4 wks ([2]; without pH adjustment): 90.9%
Remaining peptide (%) 5 wks ([2]; without pH adjustment): 89.9%
Remaining peptide (%) 6 wks ([2]; without pH adjustment): 88.2%
Remaining peptide (%) 7 wks ([2]; without pH adjustment): 87.2%
Remaining peptide (%) 8 wks ([2]; without pH adjustment): 86.1%

From patent US6274553A, “Method for stabilizing peptides and freeze-dried medicinal compositions containing peptides obtained by using the method” (Japan Energy Corporation, priority 1997, dated 2001)
